From patent publication US20100305304A1 (COMPLIX, published 2010)

B1: Q2aI peptide (Ac-MSIEEIQKQIAAIQKQIAAIQKQIYRMTP-NH2) (peptide)
peptide: Ac-MSIEEIQKQIAAIQKQIAAIQKQIYRMTP-NH2
notes: Synthetic peptide; also called untagged peptide
B2: reference peptide Q2a (Ac-MSIEEIQKQQAAIQKQIAAIQKQIYRMTP-NH2) (peptide)
peptide: Ac-MSIEEIQKQQAAIQKQIAAIQKQIYRMTP-NH2
notes: Synthetic peptide; Three copies associate non-covalently into a parallel alpha-helical coiled coil; also called untagged peptide

Legend:
[1] = target: the molecule itself; experiment: self-association of the peptide chains into a homotrimer; sedimentation equilibrium ultracentrifugation
[2] = target: the molecule itself; experiment: self-association of the peptide chains into a homotrimer; CD thermal unfolding curve fitted to a monomer-trimer equilibrium
Protocol: The said synthesized peptide was dissolved at a concentration of 292 microM in 20 mM phosphate buffer (PBS), 150 mM NaCl, pH 7.2. The CD spectra were measured between […], at 5 and 90 degrees Celsius (FIG. 3). The spectrum at 5 degrees Celsius was indicative of a high alpha-helical secondary structure content, in agreement with the expectation that all heptad regions, but not all of the flanking residues, would assemble as alpha-helical coiled coils.
To analyse whether the temperature-induced transition between helical and nonhelical states was reversible, a forward (up) and backward (down) thermal scan was performed on the same sample, by recording the CD signal at […] as a function of temperature at a scanning rate of about 1 degree Celsius per minute (FIG. 4). It was observed that the up and down scans almost perfectly coincided, thereby confirming the quantitative unfolding and refolding of the peptides in the sample.
FIG. 5 represents fitting of a theoretic equation for trimeric association to experimental data. The experimental data are taken from FIG. 4, curve labeled “UP”. The theoretic equations used are listed supra. The fitted parameters (fitting results) are listed at the right in FIG. 5. “Transit. T” corresponds to Tₜ, but is expressed here in degrees Celsius. The parameter “delta Cₚ” was kept constant at 3.0 kJ mol⁻¹ K⁻¹. […]

| Protein | binding result [1] | binding result [2] |
| --- | --- | --- |
| B1 | binds | – |
| B2 | – | binds |
